{"source": "paper PMC4399498", "about": "(Nature communications, 2014)", "proteins": {"B1": {"name": "KdpE-E216A (natural protein, E. coli, UniProt P21866 1-225, looked up)", "chain": "MTNVLIVEDEQAIRRFLRTALEGDGMRVFEAETLQRGLLEAATRKPDLIILDLGLPDGDGIEFIRDLRQWSAVPVIVLSARSEESDKIAALDAGADDYLSKPFGIGELQARLRVALRRHSATTAPDPLVKFSDVTVDLAARVIHRGEEEVHLTPIEFRLLAVLLNNAGKVLTQRQLLNQVWGPNAVEHSHYLRIYMGHLRQKLEQDPARPRHFITATGIGYRFML"}}, "biological_target": "the molecule itself", "assay": "crystal structure"}
{"protein": "B1", "values": [{"measurement": "binding result", "value": "binds"}]}
